Here are results for two molecules from patent publication US20220002418A1 (HUABO BIOPHARM SHANGHAI, published 2022).

The target of test [1] is T1, Recombinant human VEGF165 (Sino Biological, 11066-HNAH) (human, UniProt P15692-4 27-191).
T1 construct: Bought reagent
Description: SPR (Biacore 8K), antibody captured on anti-human capture CM5 chip, antigen as analyte, 1:1 model. How it is done:
(§1) Methods: Anti-Human Capture-CM5 chip was prepared according to the amino coupling method of the Human Antibody Capture Kit. The chip was balanced at room temperature for 20-30 min, and then loaded into Biacore 8K instrument. The transient transduced protein was diluted to experimental working concentration with equilibration buffer. The antigen was diluted to 50 nM with equilibration buffer, and then diluted to seven concentration gradients with a 3-fold dilution, and two zero concentrations (equilibration buffer) and one repeat concentration (usually a repeat of the lowest concentration) were set. According to the order of antibody, antigen, and regeneration, cyclical experimental analysis were performed on 10 antigen concentrations (2 zero concentrations, 7 gradient concentrations and 1 repeat concentration), wherein the antigen injection flow rate was 30 μL/min, binding time was 120 seconds, and dissociation time was 600 seconds. After the analysis was completed, the corresponding analysis program was selected to analyze the data, confirming that there was no obvious reference binding. Kinetics, 1:1 binding modle was selected to fit the data, and the kinetic related parameters Ka, Kd and KD values of human-mouse chimeric antibody and humanized antibody were obtained.
Background: In SPR one partner is held on a chip, and binding of the other changes the refractive index at the surface.

Test [2] addresses T2, Recombinant human PD-L1 (Sino Biological, 10084-H08H) (human, UniProt Q9NZQ7 19-239).
T2 construct: Bought reagent
Described as above. The method, then: as §1

In test [3] the target is T3, Soybean trypsin inhibitor 1-S type (Sigma, T-2327) (soybean, UniProt P01070 25-205).
T3 construct: Non-target molecule, amine-coupled to the CM5 chip
T3 sequence (looked up): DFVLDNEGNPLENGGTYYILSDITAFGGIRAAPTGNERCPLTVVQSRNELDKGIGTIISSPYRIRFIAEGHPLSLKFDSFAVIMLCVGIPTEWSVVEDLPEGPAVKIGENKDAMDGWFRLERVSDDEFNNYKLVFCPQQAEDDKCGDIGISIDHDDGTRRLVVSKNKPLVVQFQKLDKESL
Description: SPR (Biacore 8K), same method as Example 3, soybean trypsin inhibitor on CM5 chip. How it is done:
(§2) Methods: Series S Sensor Chip CM5 was balanced at room temperature for 20-30 min, and loaded into Biacore 8K instrument. Egg white lysozyme and soybean trypsin inhibitor 1-S type were fixed to the CM5 chip, respectively, using the Amino Coupling Kit. The injection buffer was HBS-EP+1×. 4 balance cycles were setted. The rabbit polyclonal antibody against lysozyme, the antibody against trypsin inhibitor, and the humanized monoclonal antibody were diluted to 1000 nM with equilibration buffer, and the flow rate was set as 5 μL/min, and the injection channels were 1, 2 and 3. The Flow Cells were 1 and 2. The binding time was 10 min, and the dissociation time was 15 min. The regeneration flow rate was 50 μl/min, which is regenerated first with 0.85% phosphoric acid for 60 s, and then with 50 mM sodium hydroxide for 30 s. The results of non-specific adsorption of bispecific antibody HB0025 and non-target molecules are shown in Table 3, and the sensor diagram of the detection of non-specific adsorption of bispecific antibody and non-target molecules is shown in FIG. 3.

Test [4] has as its target T4, Egg white lysozyme (Sigma, L3790) (UniProt P00698 19-147).
T4 construct: Non-target molecule, amine-coupled to the CM5 chip
Description: SPR (Biacore 8K), same method as Example 3, lysozyme on CM5 chip. The method, then: as §2

Test [5] deals with T1, Recombinant human VEGF165 (Sino …). Description: SPR (Biacore 8K), same method as Example 2. How it is done:
as §1

For test [6], the target named is T2, Recombinant human PD-L1 (Sino …). Briefly: SPR (Biacore 8K), same method as Example 2. The method, then: as §1

T2 sequence (Q9NZQ7 19-239 limits assumed): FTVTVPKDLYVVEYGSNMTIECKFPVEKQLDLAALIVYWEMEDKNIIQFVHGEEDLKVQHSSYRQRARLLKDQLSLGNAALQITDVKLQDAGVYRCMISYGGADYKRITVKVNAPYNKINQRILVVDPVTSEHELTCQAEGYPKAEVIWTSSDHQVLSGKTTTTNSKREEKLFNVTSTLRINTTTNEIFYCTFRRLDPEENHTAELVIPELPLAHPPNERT
T1 sequence (P15692 other isoform, or with tags, fused parts or gaps): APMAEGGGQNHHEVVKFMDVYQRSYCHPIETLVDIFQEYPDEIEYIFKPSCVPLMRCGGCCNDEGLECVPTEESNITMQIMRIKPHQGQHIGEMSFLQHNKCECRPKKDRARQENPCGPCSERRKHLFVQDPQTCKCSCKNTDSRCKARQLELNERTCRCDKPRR
T4 sequence (P00698 19-147 limits assumed): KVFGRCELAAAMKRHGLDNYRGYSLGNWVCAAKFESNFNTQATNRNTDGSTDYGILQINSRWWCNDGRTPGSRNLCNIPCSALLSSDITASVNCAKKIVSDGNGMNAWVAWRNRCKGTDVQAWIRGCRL

B1: bispecific antibody HB0025 (bifunctional antibody 900387) (bispecific antibody, human IgG1, kappa, L234A L235A)
heavy: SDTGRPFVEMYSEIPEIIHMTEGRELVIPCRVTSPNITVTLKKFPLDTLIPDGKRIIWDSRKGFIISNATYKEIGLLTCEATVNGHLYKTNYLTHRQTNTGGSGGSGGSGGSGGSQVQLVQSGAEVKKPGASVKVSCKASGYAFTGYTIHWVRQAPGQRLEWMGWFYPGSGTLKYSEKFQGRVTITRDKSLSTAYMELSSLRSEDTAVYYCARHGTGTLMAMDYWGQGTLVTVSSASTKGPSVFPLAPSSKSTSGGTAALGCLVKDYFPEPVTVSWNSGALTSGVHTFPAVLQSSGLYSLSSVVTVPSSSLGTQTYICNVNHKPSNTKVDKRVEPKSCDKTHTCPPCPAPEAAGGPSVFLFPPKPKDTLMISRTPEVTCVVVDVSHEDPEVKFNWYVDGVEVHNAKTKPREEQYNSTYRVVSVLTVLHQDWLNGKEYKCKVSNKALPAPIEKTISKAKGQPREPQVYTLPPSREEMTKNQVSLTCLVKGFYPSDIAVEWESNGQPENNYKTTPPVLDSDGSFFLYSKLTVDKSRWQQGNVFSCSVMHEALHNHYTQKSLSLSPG
light: DVVMTQTPLSLSVTPGQPASISCKSSQSLANSYGNTYLSWYLHKPGQSPQLLIYGISNRFSGVPDRFSGSGSGTDFTLKISRVEAEDVGVYYCLQGTHQPPTFGQGTKLEIKRTVAAPSVFIFPPSDEQLKSGTASVVCLLNNFYPREAKVQWKVDNALQSGNSQESVTEQDSKDSTYSLSSTLTLSKADYEKHKVYACEVTHQGLSSPVTKSFNRGEC
notes: symmetrical molecule with two H and two L chains; also called HB0025-22A3/9E3-ProA-EP; HB0025-22F5/4E6-ProA-EP
Turning to B1, in test [1], the Kd came to 0.0295 nM, the koff was determined as 0.00028 s⁻¹ and the kon was 9.5e+06 M⁻¹ s⁻¹. For the same molecule, in test [2], the equilibrium dissociation constant (Kd) came to 0.844 nM, the koff turned out to be 0.000402 s⁻¹ and the kon came out at 476000 M⁻¹ s⁻¹.

B2: bispecific antibody 900388 (bispecific antibody, human IgG1, kappa, L234A L235A)
heavy: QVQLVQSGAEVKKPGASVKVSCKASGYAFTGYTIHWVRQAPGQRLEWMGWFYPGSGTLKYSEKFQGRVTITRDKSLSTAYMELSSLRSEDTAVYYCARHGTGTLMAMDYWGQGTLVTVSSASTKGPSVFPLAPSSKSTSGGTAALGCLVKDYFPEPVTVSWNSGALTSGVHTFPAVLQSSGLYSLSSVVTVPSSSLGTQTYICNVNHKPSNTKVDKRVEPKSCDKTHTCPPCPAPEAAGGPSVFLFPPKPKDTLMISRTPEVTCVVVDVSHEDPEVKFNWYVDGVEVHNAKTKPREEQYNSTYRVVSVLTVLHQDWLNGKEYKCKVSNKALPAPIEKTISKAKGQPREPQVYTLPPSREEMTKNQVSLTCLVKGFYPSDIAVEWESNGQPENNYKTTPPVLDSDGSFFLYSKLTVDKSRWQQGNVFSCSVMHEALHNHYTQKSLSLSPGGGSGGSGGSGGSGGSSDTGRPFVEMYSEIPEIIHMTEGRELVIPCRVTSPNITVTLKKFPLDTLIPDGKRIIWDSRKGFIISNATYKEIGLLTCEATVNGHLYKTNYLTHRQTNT
light: B1 light
Regarding B2, in test [3], the binding result is “no binding”. In test [4], the binding result is on record as “no binding”. Moreover, in test [5], the Kd is 0.0398 nM, the koff was found to be 0.00041 s⁻¹ and the kon was 1.03e+07 M⁻¹ s⁻¹. For the same molecule, in test [6], the Kd was determined as 0.824 nM, the koff was found to be 0.000522 s⁻¹ and the kon was determined as 633000 M⁻¹ s⁻¹.

As a reminder, the Kd is the constant that tells how readily two partners part at equilibrium. The koff is the rate constant with which the complex falls apart. As a reminder, the kon is a measure of how fast the partners come together.
